Assay results reported in patent publication US20250101437, “[…] FOR […] VARIANTS OF A TARGET ANALYTE, METHODS OF MAKING AND USES […]” (McMaster University, published 2025).

Assays:
[1] = target: SARS-CoV-2 spike S1 subunit, original Wuhan (SARS-CoV-2 (Wuhan), UniProt P0DTC2 P0DTC2:16-685); assay: filter; dot blot; details: tags: Sino Biological 40591-V08B1, label: 5'-32P
[2] = target: T1, SARS-CoV-2 spike S1 subunit, original Wuhan (SARS-CoV-2 (Wuhan), UniProt P0DTC2 P0DTC2:16-685); assay: competition; details: tags: Sino Biological 40591-V08B1
229E spike RBD = 229E spike RBD (Human coronavirus 229E, UniProt P15423 P15423:293-435); assay: filter; dot blot; very weak binding; details: label: 5'-32P; four-way junction (proposed)
229E spike RBD, sequence (P15423 293-435, one chain of several): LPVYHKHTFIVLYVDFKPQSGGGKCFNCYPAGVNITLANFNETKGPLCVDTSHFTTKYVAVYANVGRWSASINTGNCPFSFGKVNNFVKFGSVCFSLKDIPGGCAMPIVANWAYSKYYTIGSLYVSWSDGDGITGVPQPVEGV

OC43 spike RBD = OC43 spike RBD (Human coronavirus OC43, UniProt P36334 P36334:333-607); assay: filter; dot blot; very weak binding; details: label: 5'-32P; four-way junction (proposed)
OC43 spike RBD, sequence (P36334 333-607, one chain of several): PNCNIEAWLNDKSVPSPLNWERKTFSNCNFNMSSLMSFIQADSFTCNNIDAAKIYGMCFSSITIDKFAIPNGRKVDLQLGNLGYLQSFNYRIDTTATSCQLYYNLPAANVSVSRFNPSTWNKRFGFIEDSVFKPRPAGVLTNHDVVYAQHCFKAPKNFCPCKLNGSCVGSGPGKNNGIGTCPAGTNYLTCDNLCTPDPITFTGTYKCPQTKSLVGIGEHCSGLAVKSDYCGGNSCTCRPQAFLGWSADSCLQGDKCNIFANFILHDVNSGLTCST

SARS-CoV-1 spike RBD = SARS-CoV-1 spike RBD (SARS-CoV-1, UniProt P59594 P59594:306-527); assay: filter; details: label: 5'-32P
[3] = target: SARS-CoV-2 spike (WH) on pseudotyped lentivirus (SARS-CoV-2 (Wuhan-Hu-1), UniProt P0DTC2 P0DTC2:14-1273); assay: filter; details: protein: virion; tags: pseudotyped lentivirus, BEI NR-52948 kit; chain copies: 3; label: 5'-32P; four-way junction (proposed)
SARS-CoV-1 spike protein = SARS-CoV-1 spike protein (SARS-CoV-1, UniProt P59594 P59594:14-1195); assay: filter; details: label: 5'-32P
MERS-CoV spike RBD = MERS-CoV spike RBD (MERS-CoV, UniProt K9N5Q8 K9N5Q8:367-606); assay: filter; details: label: 5'-32P
[4] = target: SARS-CoV-2 spike trimer, original Wuhan (WHS) (SARS-CoV-2 (Wuhan-Hu-1), UniProt P0DTC2 P0DTC2:14-1213); assay: filter; […]; binding buffer ([…], Mg, Tween-20, pH 7.4); details: tags: full-length trimeric spike, Expi293 cells, Ni-NTA purified; chain copies: 3 (stated trimeric); label: 5'-32P
Bovine serum albumin = Bovine serum albumin (Bos taurus, UniProt P02769 P02769:25-607); assay: filter; 50 nM protein; details: tags: Sigma-Aldrich; label: 5'-32P; four-way junction (proposed)
Bovine serum albumin, sequence (P02769 25-607, one chain of several): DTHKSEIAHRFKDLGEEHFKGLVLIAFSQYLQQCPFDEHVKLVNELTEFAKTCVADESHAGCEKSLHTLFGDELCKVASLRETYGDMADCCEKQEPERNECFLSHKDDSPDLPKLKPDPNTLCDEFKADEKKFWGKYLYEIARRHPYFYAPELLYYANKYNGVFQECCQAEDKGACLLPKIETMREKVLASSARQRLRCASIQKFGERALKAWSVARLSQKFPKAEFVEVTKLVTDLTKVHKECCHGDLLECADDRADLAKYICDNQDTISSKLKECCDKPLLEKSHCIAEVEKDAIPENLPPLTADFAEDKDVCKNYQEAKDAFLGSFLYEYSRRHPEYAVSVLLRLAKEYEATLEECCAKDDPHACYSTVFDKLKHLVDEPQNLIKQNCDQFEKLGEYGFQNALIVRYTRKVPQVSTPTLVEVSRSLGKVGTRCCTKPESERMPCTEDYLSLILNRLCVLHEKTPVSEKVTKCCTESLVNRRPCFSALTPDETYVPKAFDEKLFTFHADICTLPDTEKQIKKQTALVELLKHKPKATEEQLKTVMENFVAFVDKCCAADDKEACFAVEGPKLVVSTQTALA

alpha-thrombin = alpha-thrombin (Homo sapiens, UniProt P00734;P00734 P00734:328-363,P00734:364-622); assay: filter; 50 nM protein; details: tags: Sigma-Aldrich; label: 5'-32P; four-way junction (proposed)
NL63 spike RBD = NL63 spike RBD (Human coronavirus NL63, UniProt Q6Q1S2 Q6Q1S2:481-616); assay: filter; 50 nM protein; details: label: 5'-32P; four-way junction (proposed)
NL63 spike RBD, sequence (Q6Q1S2 481-616, one chain of several): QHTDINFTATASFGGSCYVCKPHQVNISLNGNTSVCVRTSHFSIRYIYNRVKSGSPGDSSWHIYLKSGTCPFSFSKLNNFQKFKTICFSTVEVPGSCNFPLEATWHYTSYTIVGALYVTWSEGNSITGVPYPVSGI

[5] = target: T1, SARS-CoV-2 spike S1 subunit, original …; assay: filter; dot blot; details: tags: Sino Biological 40591-V08B1; label: 5'-32P

B1: MSA52-T2 (ssDNA)
DNA: TTACGTCAAGGTGTCACTCCGTAGGGTTTGCTGGCGTCGGTCGTCTCTCGCGAAGCATCTCTTTGGCGTG
**Q.** With B1 as the binder, how does the Kd [1] read?
**A.** Its Kd is 53.4 nM.

B2: MSA52-T4 (ssDNA)
DNA: TTACGTCAAGGTGTCACTCCGTAGGGTTTGGCTCCGGGCCTGGCGTCGGTCGCGAAGCATCTCTTTGGCGTG
**Q.** How did the Kd [1] turn out when B2 was run?
**A.** Its Kd is 6 nM.

B3: Mutant Control (MC, shuffled MSA52) (ssDNA)
DNA: TCTTTCGTGCCATCCTGCGGGTGGCTGTCCGAGGCTGGTGGCTCTGCAAGTGCCACGCTTTATCTGAGGTTCGCCGGTA
**Q.** Does B3 bind [2]?
**A.** Result: no binding

B4: MSA52-T3 (ssDNA)
DNA: TTACGTCAAGGTGTCACTCCGTAGGGTTTGGCTCCGGGCCTGGCATCTCTTTGGCGTG
**Q.** B4 was tested. Which Kd [1] did it give?
**A.** Its Kd is 94.8 nM.

B5: MSA52 (ssDNA)
DNA: TTACGTCAAGGTGTCACTCCGTAGGGTTTGGCTCCGGGCCTGGCGTCGGTCGTCTCTCGCGAAGCATCTCTTTGGCGTG
**Q.** What does the source list for B5?
**A.** Kd (229E spike RBD): > 200 nM; Kd (OC43 spike RBD): > 200 nM; binding result (SARS-CoV-1 spike RBD): no binding; Kd [3]: 0.0184 nM; Kd (SARS-CoV-1 spike protein): > 150 nM; binding result (MERS-CoV spike RBD): no binding; Kd [4]: 3.6 nM; binding result (Bovine serum albumin): no binding; binding result (alpha-thrombin): no binding; binding result (NL63 spike RBD): no binding; Kd [5]: 6.6 nM

B6: MSA52-T5 (ssDNA)
DNA: ACGCCAAGGTGTCACTCCGTAGGGTTTGGCTCCGGGCCTGGCGTCGGTCGCGAAGCATCTCCTTGGCGT
**Q.** B6 was tested. Which Kd ([1]; four-way junction (proposed)) did it give?
**A.** Its Kd is 5.5 nM.

B7: MSA52-T1 (ssDNA)
DNA: TTACGTCAAGGTGTCATTGGCTCCGGGCCTGGCGTCGGTCGTCTCTCGCGAAGCATCTCTTTGGCGTG
**Q.** B7 was tested. Which Kd [1] did it give?
**A.** Its Kd is 61.8 nM.
